The target of data set [1] is T1, SloR (Streptococcus mutans UA159?) (UniProt I6L923).
T1 sequence: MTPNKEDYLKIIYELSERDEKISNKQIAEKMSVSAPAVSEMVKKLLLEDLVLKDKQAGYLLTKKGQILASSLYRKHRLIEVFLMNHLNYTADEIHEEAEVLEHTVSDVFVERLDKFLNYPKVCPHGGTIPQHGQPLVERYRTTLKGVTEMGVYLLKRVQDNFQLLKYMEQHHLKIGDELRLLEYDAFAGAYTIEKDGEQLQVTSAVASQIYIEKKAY
The experiment in a line: EMSA. The conditions noted are these: BLI: PBS pH 7.2, 0.1% Tween-20, 100 uM MnCl2, 30 C; EMSA: 60-200 nM SloR, 16 uL, 12% native gel, buffer as cited; footprinting: 8.4 mM NaH2PO4, 11.6 mM …. On the technique in general: Mobility shift assays separate free from complexed probe on a gel.

Data set [2] addresses T1, SloR (Streptococcus mutans UA159?). The experiment in a line: footprinting. Conditions: BLI: PBS pH 7.2, 0.1% Tween-20, 100 uM MnCl2, 30 C; EMSA: 60-200 nM SloR, 16 uL, 12% native gel, buffer as cited; footprinting: 8.4 mM NaH2PO4, 11.6 mM ….
The target of data set [3] is T2, SloR (UniProt I6L923 1-217).
T2 sequence: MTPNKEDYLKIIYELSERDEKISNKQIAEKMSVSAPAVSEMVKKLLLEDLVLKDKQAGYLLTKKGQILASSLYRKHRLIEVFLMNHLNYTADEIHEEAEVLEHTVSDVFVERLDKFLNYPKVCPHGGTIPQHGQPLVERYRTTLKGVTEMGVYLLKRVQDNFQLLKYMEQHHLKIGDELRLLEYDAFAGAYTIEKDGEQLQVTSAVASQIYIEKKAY
The experiment in a line: EMSA; BLI: PBS pH 7.2, 0.1% Tween-20, 100 uM MnCl2, 30 C; EMSA: 60-200 nM SloR, 16 uL, 12% native gel, buffer as cited; footprinting: 8.4 mM NaH2PO4, 11.6 mM Na2HPO4, 50 mM NaCl, 5 mM MgCl2, 10 ug/mL BSA, 200 ug/mL salmon sperm DNA, 7.5 uM MnCl2, 30 C. The conditions noted are these: protein: recombinant; tags: native (untagged) SloR purified for EMSA and footprinting; chain copies: 2; label: 5' 32P; blunt.

Data set [4] addresses T2, SloR. The experiment in a line: EMSA; 60 nM SloR; BLI: PBS pH 7.2, 0.1% Tween-20, 100 uM MnCl2, 30 C; EMSA: 60-200 nM SloR, 16 uL, 12% native gel, buffer as cited; footprinting: 8.4 mM NaH2PO4, 11.6 mM Na2HPO4, 50 mM NaCl, 5 mM MgCl2, 10 ug/mL BSA, 200 ug/mL salmon sperm DNA, 7.5 uM MnCl2, 30 C. Conditions: protein: recombinant, tags: native (untagged) SloR purified for EMSA and footprinting, chain copies: 2, blunt.

Data set [5] addresses T3, SloR (BLI preparation) (UniProt I6L923 1-217).
T3 sequence: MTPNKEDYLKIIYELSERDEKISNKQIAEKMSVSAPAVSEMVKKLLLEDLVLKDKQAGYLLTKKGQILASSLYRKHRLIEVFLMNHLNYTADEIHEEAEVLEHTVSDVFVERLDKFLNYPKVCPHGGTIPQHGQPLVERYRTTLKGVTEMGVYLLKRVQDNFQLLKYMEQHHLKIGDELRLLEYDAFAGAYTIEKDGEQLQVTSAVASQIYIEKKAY
Put plainly: BLI; 100 uM MnCl2; Kd only in figure; BLI: PBS pH 7.2, 0.1% Tween-20, 100 uM MnCl2, 30 C; EMSA: 60-200 nM SloR, 16 uL, 12% native gel, buffer as cited; footprinting: 8.4 mM NaH2PO4, 11.6 mM Na2HPO4, 50 mM NaCl, 5 mM MgCl2, 10 ug/mL BSA, 200 ug/mL salmon sperm DNA, 7.5 uM MnCl2, 30 C. Conditions: protein: recombinant; tags: immobilized on NTA biosensor; chain copies: 2; label: 5' 32P in EMSA; blunt.

For data set [6], the target named is T3, SloR (BLI preparation). Put plainly: BLI; 100 uM MnCl2; BLI: PBS pH 7.2, 0.1% Tween-20, 100 uM MnCl2, 30 C; EMSA: 60-200 nM SloR, 16 uL, 12% native gel, buffer as cited; footprinting: 8.4 mM NaH2PO4, 11.6 mM Na2HPO4, 50 mM NaCl, 5 mM MgCl2, 10 ug/mL BSA, 200 ug/mL salmon sperm DNA, 7.5 uM MnCl2, 30 C. Conditions: protein: recombinant; tags: immobilized on NTA biosensor; chain copies: 2; blunt. Background: BLI is a label-free optical method that tracks binding on a fibre tip over time.

The target in data set [7] is T3, SloR (BLI preparation). The experiment in a line: BLI; 100 uM MnCl2; DNA up to 20 uM; BLI: PBS pH 7.2, 0.1% Tween-20, 100 uM MnCl2, 30 C; EMSA: 60-200 nM SloR, 16 uL, 12% native gel, buffer as cited; footprinting: 8.4 mM NaH2PO4, 11.6 mM Na2HPO4, 50 mM NaCl, 5 mM MgCl2, 10 ug/mL BSA, 200 ug/mL salmon sperm DNA, 7.5 uM MnCl2, 30 C. Conditions: protein: recombinant; tags: immobilized on NTA biosensor; chain copies: 2; blunt.

Data set [8] deals with T2, SloR. The experiment in a line: EMSA; 60 nM SloR; two band shifts, intensity 1.3 and 0.03 AU; BLI: PBS pH 7.2, 0.1% Tween-20, 100 uM MnCl2, 30 C; EMSA: 60-200 nM SloR, 16 uL, 12% native gel, buffer as cited; footprinting: 8.4 mM NaH2PO4, 11.6 mM Na2HPO4, 50 mM NaCl, 5 mM MgCl2, 10 ug/mL BSA, 200 ug/mL salmon sperm DNA, 7.5 uM MnCl2, 30 C. Conditions: protein: recombinant; tags: native (untagged) SloR purified for EMSA and footprinting; chain copies: 2; label: 5' 32P; blunt.

For “GCATACTTAACATATGCTGTTTTTTATGCTATAATGCAATTAACCCAATTATATTAGAAAAGAGATTTTCAAAATGAAAACTCATCCAAAAAAGCAATCACTCAGCGAGGT (double strand) [mntH 111-bp probe (-75 to +36 of coding)]”, in data set [1], the binding entry is on record as “no binding”.
As for “GATTGTTTAGACATCTCTGATTAATTTTCCATAATCTCTATTGTGTTTTATACTGTCAGTAATTCTTACAAACTCTTTATATTCAGTAATAATAGGTACACCTTTTTTAATTTTTAAGCATACTTAACATATGCTGTTTTTTATGCTATAATGCAATTAACCCAATTATATTAGAAAAGAGATTTTCAAAATGAAAACTCATCCAAAAAAGCAATCACTCAGCGAGGTCAATCAGAGCGTTCGTGTTCCTAAAAATGCCTCTTTTTTAACAACTTTAAGAGCTTTTTTAGG (double strand) [mntH 291-bp footprint amplicon]”, in data set [2], the binding entry is recorded as “binds”.

B1: mntH 100-bp deletion amplicon (dsDNA)
DNA 1: AGGTACACCTTTTTTAATTTTTAAGCATACTTAACATATGCTGTTTTTTATGCTATAATGCAATTAACCCAATTATATTAGAAAAGAGATTTTCAAAATG
DNA 2: CATTTTGAAAATCTCTTTTCTAATATAATTGGGTTAATTGCATTATAGCATAAAAAACAGCATATGTTAAGTATGCTTAAAAATTAAAAAAGGTGTACCT
In the case of B1, the binding result with SloR [3] is listed as “binds”.

B2: mntH.22.SRE1.10IR (SRE1 spacer with -10 SRE IRs) (dsDNA)
DNA 1: GCAATTAAGCATACTATATTAG
DNA 2: CTAATATAGTATGCTTAATTGC
Turning to B2, in the data set with SloR [3], the binding result is given as “no binding”.

B3: mntH.22.SRE1.WT (dsDNA)
DNA 1: ATTTTTAAGCATACTTAACATA
DNA 2: TATGTTAAGTATGCTTAAAAAT
As for B3, the binding result with SloR [4] (label: 5' 32P in EMSA) and with SloR (BLI preparation) [5] was “binds” each time.

B4: mntH 159-bp promoter probe (dsDNA)
DNA 1: TCTCTATTGTGTTTTATACTGTCAGTAATTCTTACAAACTCTTTATATTCAGTAATAATAGGTACACCTTTTTTAATTTTTAAGCATACTTAACATATGCTGTTTTTTATGCTATAATGCAATTAACCCAATTATATTAGAAAAGAGATTTTCAAAATG
DNA 2: CATTTTGAAAATCTCTTTTCTAATATAATTGGGTTAATTGCATTATAGCATAAAAAACAGCATATGTTAAGTATGCTTAAAAATTAAAAAAGGTGTACCTATTATTACTGAATATAAAGAGTTTGTAAGAATTACTGACAGTATAAAACACAATAGAGA
In the case of B4, the binding result with SloR [3] is reported as “binds”.

B5: sloA.72.WT (dsDNA)
DNA 1: AGCCTTAATTAATGTAGATTATATTTTTAATTGAACTGAATTAAAAATATAATCCAATATAATGAATATTTT
DNA 2: AAAATATTCATTATATTGGATTATATTTTTAATTCAGTTCAATTAAAAATATAATCTACATTAATTAAGGCT
For B5, the dissociation constant Kd in the data set with SloR (BLI preparation) [6] was about 31 nM.

B6: mntH.22.SRE1.w10.spcr (spacer variant) (dsDNA)
DNA 1: ATTTTTAACCCAATTTAACATA
DNA 2: TATGTTAAATTGGGTTAAAAAT
On to B6, for which the binding result with SloR [3] is reported as “no binding”.

B7: mntH.90.WT (dsDNA)
DNA 1: GTAATTCTTACAAACTCTTTATATTCAGTAATAATAGGTACACCTTTTTTAATTTTTAAGCATACTTAACATATGCTGTTTTTTATGCTA
DNA 2: TAGCATAAAAAACAGCATATGTTAAGTATGCTTAAAAATTAAAAAAGGTGTACCTATTATTACTGAATATAAAGAGTTTGTAAGAATTAC
Turning to B7, in the data set with SloR (BLI preparation) [6], the Kd was about 33 nM.

B8: mntH.22.SRE1.CC (left IR mutant) (dsDNA)
DNA 1: ATTTTTCCGCATACTTAACATA
DNA 2: TATGTTAAGTATGCGGAAAAAT
On to B8, for which the binding result in the data set with SloR [3] is on record as “no binding”.

B9: mntH.22.SRE2.WT (dsDNA)
DNA 1: AATAATAGGTACACCTTTTTTA
DNA 2: TAAAAAAGGTGTACCTATTATT
Turning to B9, the binding result with SloR (BLI preparation) [7] is listed as “no binding”.

B10: mntH.100.WT (dsDNA)
DNA 1: TACTGTCAGTAATTCTTACAAACTCTTTATATTCAGTAATAATAGGTACACCTTTTTTAATTTTTAAGCATACTTAACATATGCTGTTTTTTATGCTATA
DNA 2: TATAGCATAAAAAACAGCATATGTTAAGTATGCTTAAAAATTAAAAAAGGTGTACCTATTATTACTGAATATAAAGAGTTTGTAAGAATTACTGACAGTA
B10: the binding result in the data set with SloR [8] is given as “binds”.

B11: mntH.100.CC.CT (SRE1+SRE2 mutant) (dsDNA)
DNA 1: TACTGTCAGTAATTCTTACAAACTCTTTATATTCAGTAATAATCTGTACACCTTTTTTAATTTTTCCGCATACTTAACATATGCTGTTTTTTATGCTATA
DNA 2: TATAGCATAAAAAACAGCATATGTTAAGTATGCGGAAAAATTAAAAAAGGTGTACAGATTATTACTGAATATAAAGAGTTTGTAAGAATTACTGACAGTA
On to B11, for which the binding result with SloR [4] (label: 5' 32P) is on record as “no binding”.

As a reminder, the Kd is the constant that tells how readily two partners part at equilibrium.

(Values after PMC12096823, “SloR-SRE binding to the S. mutans mntH promoter is cooperative”.)
